Read-outs that look alike come from different tables or passages of the source.
Tests used:
[1] = biological target: P22 procapsid (PC) after removal of the Dec-binding sub-population (bacteriophage P22 (filing: P22 VLP from Salmonella typhimurium)) (UniProt P26747); test: SEC-MALS, particle molecular weight after incubation with DecWT; PC control row 22.8±0.7
[2] = biological target: P22 procapsid (PC) after removal of the Dec-binding sub-population (bacteriophage P22 (filing: P22 VLP from Salmonella typhimurium)) (UniProt P26747); test: SEC retention shift after incubation with DecWT; PC control row 0±0.001
[3] = biological target: P22 procapsid (PC) after removal of the Dec-binding sub-population (bacteriophage P22 (filing: P22 VLP from Salmonella typhimurium)) (UniProt P26747); test: SEC-QELS, particle radius of hydration after incubation with DecWT; PC control row 26.4±0.5
[4] = biological target: P22 procapsid (PC) after removal of the Dec-binding sub-population (bacteriophage P22 (filing: P22 VLP from Salmonella typhimurium)) (UniProt P26747); test: SEC-MALS, number of Dec monomers calculated from the difference between bound and control particle molecular weight; PC control row 0±43
[5] = biological target: T1, EX P22 VLP (expanded form of the bacteriophage P22 virus-like particle) (bacteriophage P22 (filing: P22 VLP from …, UniProt P26747 2-430)); test: SPR, EX P22 immobilised, two-site global fit; site 2, column 'Ka2 (M-1 s-1)'
[6] = biological target: T1, EX P22 VLP (expanded form of the …); test: SEC retention shift of P22 upon Dec binding; EX control row 0±0.008
[7] = biological target: T1, EX P22 VLP (expanded form of the …); test: SEC-MALS, particle molecular weight with Dec bound; EX control row 20.5±0.2
[8] = biological target: T1, EX P22 VLP (expanded form of the …); test: SPR, EX P22 immobilised, two-site global fit; site 1, column 'Kd1 (s-1 x 10-4)'
[9] = biological target: T1, EX P22 VLP (expanded form of the …); test: SEC-QELS, particle radius of hydration with Dec bound; EX control row 28.4±0.7
[10] = biological target: T1, EX P22 VLP (expanded form of the …)
[11] = biological target: T1, EX P22 VLP (expanded form of the …); remark: listed apart in the source
[12] = biological target: T1, EX P22 VLP (expanded form of the …); test: SPR, single-site fit
[13] = biological target: T1, EX P22 VLP (expanded form of the …); test: SPR, EX P22 immobilised, two-site fit, high-affinity site
[14] = biological target: T1, EX P22 VLP (expanded form of the …); test: SPR, EX P22 immobilised, single-site fit of the low concentrations
[15] = biological target: T1, EX P22 VLP (expanded form of the …); test: SPR, extended 4 h dissociation, two independent sites, weak site
[16] = biological target: T1, EX P22 VLP (expanded form of the …); test: SPR, EX P22 immobilised, two-site fit, low-affinity site
[17] = biological target: T1, EX P22 VLP (expanded form of the …); test: SPR, extended 4 h dissociation, two independent sites, tight site
[18] = biological target: T1, EX P22 VLP (expanded form of the …); test: SPR, two-site fit with the tight-site kd fixed at the value of the 4 h dissociation
[19] = biological target: T1, EX P22 VLP (expanded form of the …); test: SPR, from the fitted parameters
[20] = biological target: T1, EX P22 VLP (expanded form of the …); test: SPR, EX P22 immobilised, two-site global fit; site 2, column 'KD2 (nM)'
[21] = biological target: T1, EX P22 VLP (expanded form of the …); test: SPR, EX P22 immobilised, two-site fit, tighter site

T1 sequence (P26747 2-430 limits assumed): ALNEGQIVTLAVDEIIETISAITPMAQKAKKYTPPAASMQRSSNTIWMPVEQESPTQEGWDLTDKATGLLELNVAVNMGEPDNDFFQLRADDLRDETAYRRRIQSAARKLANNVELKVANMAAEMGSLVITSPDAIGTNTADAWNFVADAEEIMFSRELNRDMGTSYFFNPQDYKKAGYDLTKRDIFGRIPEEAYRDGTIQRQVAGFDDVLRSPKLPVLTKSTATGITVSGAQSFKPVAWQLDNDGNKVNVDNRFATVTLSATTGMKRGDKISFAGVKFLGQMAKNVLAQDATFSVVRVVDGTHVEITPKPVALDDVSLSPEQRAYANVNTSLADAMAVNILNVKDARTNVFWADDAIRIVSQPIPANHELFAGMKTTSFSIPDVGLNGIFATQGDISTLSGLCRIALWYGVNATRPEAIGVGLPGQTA
Sequence of P22 procapsid (PC) after removal of the Dec-binding sub-population (bacteriophage P22 (filing: P22 VLP from Salmonella typhimurium)) (P26747 2-430, chain 1 of 2): as the sequence (P26747 2-430 limits assumed) above
Sequence of P22 procapsid (PC) after removal of the Dec-binding sub-population (bacteriophage P22 (filing: P22 VLP from Salmonella typhimurium)) (P26748 whole entry, chain 2 of 2, further chain): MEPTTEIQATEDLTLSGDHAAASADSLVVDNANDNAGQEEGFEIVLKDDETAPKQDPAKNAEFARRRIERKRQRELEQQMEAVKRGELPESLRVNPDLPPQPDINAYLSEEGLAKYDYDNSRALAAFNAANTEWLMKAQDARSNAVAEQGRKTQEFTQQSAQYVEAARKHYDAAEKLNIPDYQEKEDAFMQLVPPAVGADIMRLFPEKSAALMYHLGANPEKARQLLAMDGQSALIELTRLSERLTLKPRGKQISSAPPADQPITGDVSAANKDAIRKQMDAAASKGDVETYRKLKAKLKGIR

| Molecule | kon [5] [M⁻¹ s⁻¹] | retention shift [6] [min] | MW (MDa) [7] [MDa] | Rh (nm) [9] [nm] | koff [10] [s⁻¹] | Kd [10] [nM] | Kd [16] [nM] | Kd [21] [nM] | koff [21] [s⁻¹] | kon [21] [M⁻¹ s⁻¹] | other results |
| --- | --- | --- | --- | --- | --- | --- | --- | --- | --- | --- | --- |
| DecWT | – | – | – | – | – | – | – | – | – | – | MW (MDa) [1]: 23.2 MDa; retention shift [2]: 0.03 min; Rh (nm) [3]: 26.6 nm; Dec monomers [4]: 24 monomers |
| DecΔ11 (Dec lacking the first 11 N-terminal residues) (other) MGSSHHHHHHSQDPLYKDADGVYVSALPIKAIKYANDGSANAEFDGPYADQYMSAQTVAVFKPEVGGYLFRSQYGELLYMSKTAFEANYTSASGSVANAETADKLSTARTITLTGAVTGSASFDGSANVTIETTSGS | 38300 | 0.595 | 23.6 | 30.1 | 0.0044 | – | – | – | – | – | koff [8]: 4.4e-05 s⁻¹; kon [10]: 9200 M⁻¹ s⁻¹ |
| DecΔ20 (Dec lacking the first 20 N-terminal residues) (other) MGSSHHHHHHSQDPVSALPIKAIKYANDGSANAEFDGPYADQYMSAQTVAVFKPEVGGYLFRSQYGELLYMSKTAFEANYTSASGSVANAETADKLSTARTITLTGAVTGSASFDGSANVTIETTSGS | – | – | – | – | 0.00024 | 3450 | – | – | – | – | Kd [11]: 3500 nM; fold reduction in KD from the high-affinity site of DecWT [12]: > 300 fold |
| DecWT (other, also called Dec with an N-terminal his-tag) MGSSHHHHHHSLVPRGSQDPMANPNFTPSWPLYKDADGVYVSALPIKAIKYANDGSANAEFDGPYADQYMSAQTVAVFKPEVGGYLFRSQYGELLYMSKTAFEANYTSASGSVANAETADKLSTARTITLTGAVTGSASFDGSANVTIETTSGS | – | 0.619 | 23 | 29.6 | 0.00182 | 446 | 1500 | – | – | – | Kd [13]: 9.2 nM; koff [13]: 0.000106 s⁻¹; kon [13]: 11500 M⁻¹ s⁻¹; Kd [14]: 24 nM; koff [14]: 0.00033 s⁻¹; kon [14]: 13800 M⁻¹ s⁻¹; koff [15]: 0.00095 s⁻¹; koff [16]: 0.00298 s⁻¹; kon [16]: 1980 M⁻¹ s⁻¹; koff [17]: 3.2e-06 s⁻¹; Kd [18]: 0.255 nM; half-life of binding at the tight-site [19]: ≥ 60 h |
| DecSelf (Dec fused at its C-terminus to the 21 amino acid CD47 mimic Self-peptide) (other) MGSSHHHHHHSQDPMANPNFTPSWPLYKDADGVYVSALPIKAIKYANDGSANAEFDGPYADQYMSAQTVAVFKPEVGGYLFRSQYGELLYMSKTAFEANYTSASGSVANAETADKLSTARTITLTGAVTGSASFDGSANVTIETTSGSELGNYTCEVTELTREGETIIELK | 2190 | 0.5 | 22.6 | 29.6 | 0.00323 | – | 146 | 18.3 | 0.0002 | 11200 | Kd [20]: 146 nM |
| DecmCD40L (Dec fused at its C-terminus to the soluble region of murine CD40L) (ligand) MGSSHHHHHHSQDPMANPNFTPSWPLYKDADGVYVSALPIKAIKYANDGSANAEFDGPYADQYMSAQTVAVFKPEVGGYLFRSQYGELLYMSKTAFEANYTSASGSVANAETADKLSTARTITLTGAVTGSASFDGSANVTIETTSGSELQRGDEDPQIAAHVVSEANSNAASVLQWAKKGYYTMKSNLVMLENGKQLTVKREGLYYVYTQVTFCSNREPSSQRPFIVGLWLKPSSGSERILLKAANTHSSSQLCEQQSVHLGGVFELQAGASVFVNVTEASQVIHRVGFSSFGLLKL | 4820 | – | – | – | 0.0068 | – | 1420 | 30.8 | 0.0002 | 6440 | – |
